The values that follow come from patent US8846868B2, “Anti-AREG/HB-EGF antibodies and treatment” (Fusion Antibodies Limited, priority 2008, dated 2014).

Numbering of substitutions follows the chain as printed.

The test system of one test is cell growth. Kind of test: Comparison of cross-specific antibody to Cetuximab, MTT cell viability. In kind it is cell-based. Conditions: cell growth assay.
For test [1], the system named is colorectal cancer cell line LoVo. Kind of test: HBEGF ligand stimulated growth, MTT assay. The class given is cell-based. The method, then: Different concentrations of cross-specific antibody was preincubated with ligand for an hour before addition to cells. Cell viability was assessed 48 hrs after treatment by MTT assay.
(§1) Cell viability was assessed by 3-(4,5-dimethylthiazol-2-yl)-2,5-diphenyltetrazolium bromide (MTT, Sigma) assay (Mosmann, 1983). To assess chemotherapy/siRNA interactions 5000 cells were seeded per well on 96 well plate. After 24 hours cells were transfected with siRNA and treated with various chemotherapeutic agents at different concentrations. After 48 hours MTT (1.0 mg/ml) was added to each well and cells were incubated at 37° C. for 2 hours. The culture media was removed and formazan crystals were reabsorbed in 200 μl DMSO. Cell viability was determined by reading the absorbance of each well at 570 nm using a microplate reader (Tecan Sunrise, Biorad, UK).

Test [2] concerns pEGFR(Tyr1068) in HCT116 cells. Kind of test: Ligand stimulated phosphorylation of EGFR, HCT116. The class given is cell-based, human. Conditions: antibody pre-incubated with recombinant HBEGF 1 hour, 20 mins stimulation. On the procedure: (§2) Cells were serum starved before addition of antibody and ligand. Cross-specific antibody (8d7 1f6 2f7, i.e. “2F7”) was pre-incubated with recombinant HBEGF for 1 hour before addition to cells. Cells were stimulated for 20 mins before preparation of cell lysates. 30 μg of protein was loaded on SDS-PAGE gel and transferred to nitrocellulose membrane. The membrane was probed with anti pEGFR(Tyr^1068)
(§3) 1.5×10^6 cells were seeded in […] in media containing 10% serum. 24 hrs after seeding cells were serum starved for 4 hrs. Antibodies were preincubated for 1 hour with 30 ng/ml of recombinant HBEGF before being added to cells for 20 mins in 2% serum. Cells were washed 3 times in PBS containing phosphatase inhibitors and scraped. Cells were pelleted and lysed. Protein concentration was determined and 30 ug of protein ran on SDS-PAGE for western blot analysis. Blots were probed with pEGFR(Tyr^1068) antibody.

The test system of test [3] is cancer cell proliferation. The experiment in a line: Cancer cell proliferation, cross-specific antibody alone or with cpt11, MTT assay. In kind it is cell-based. Conditions: 100 nM antibody in combination with 10 μM cpt11; MTT 72 hrs. On the procedure: Cells were treated with 100 nM isotype control or 100 nM cross-specific antibody (8d7 1f6 2f7 i.e. “2F7” or 8d7 1f6 2b3 i.e. “2B3” alone or in combination with 10 μM cpt11. Cells were analysed by MTT assay after 72 hrs treatment. ** indicates statistically significant P<0.001. 2B3 RI value is 0.99 therefore an additive effect. 2F7 RI value is 1.1 therefore (slightly) synergistic.
as §1

Test [4] relates to pEGFR(Tyr 1068) in LoVo cells. Kind of test: Ligand stimulated phosphorylation of EGFR, LoVo. The class given is cell-based. Conditions: antibody pre-incubated with recombinant HBEGF 1 hour, 20 mins stimulation. The method, then:
Cells were serum starved before addition of antibody and ligand. Cross-specific antibody (8d7 1f6 2f7, i.e. “2F7”) was pre-incubated with recombinant HBEGF for 1 hour before addition to cells. Cells were stimulated for 20 mins before preparation of cell lysates. 30 μg of protein was loaded on SDS-PAGE gel and transferred to nitrocellulose membrane. The membrane was probed with anti pEGFR(Tyr 1068)
as §3

In test [5] the test system is pEGFR(Tyr1068) in MDA-MB231 cells. Kind of test: Ligand stimulated phosphorylation of EGFR, MDA-MB231. The class given is cell-based, human. Conditions: antibody pre-incubated with recombinant HBEGF 1 hour, 20 mins stimulation. The method, then: as §2, §3

Experimental for cell growth: Antibodies were added to cells at concentration of 20 ug/ml and 40 ug/ml alone and in combination with chemotherapy treatment. Cell viability was assessed 72 hrs after treatment by MTT assay. ** indicates nt P<0.001. * indicates p<0.05.

In general, IC30 refers to the concentration needed for an effect of 30%. Low readings indicate greater potency, high ones weaker potency. `CCc1c2c(nc3ccc(OC(=O)N4CCC(N5CCCCC5)CC4)cc13)-c1cc3c(c(=O)n1C2)COC(=O)[C@]3(O)CC` [cpt-11, irinotecan] returned an IC30 in the test on cell growth of 5 µM.

B1: 8d7 1c8 1e9: cross-specific AREG/HBEGF murine monoclonal antibody; VH Sequence ID No: 5, VL Sequence ID No: 6 (antibody, listed as Mus musculus)
VH: MEWSWVILFLMAVVTGVNSEVQLQQSGAELVRPGALVKLSCKASGFNIKDSYIHWVNQRPEQGLEWIGWIDPENGNTIYDPKFQGKASITADTSSNTAYLQLSSLTSEDTAVYYCVSASYRYGFSYWGQGTLVTVSAAKTTPPSVYPWVPGSLX
VL: XADXISISCRSNKSLLHTNGNTYLYWFLQRPGQSPQLLIYRMSNLASGVPDRFSGSGSGTAFTLRISRVEAEDVGVYYCMQHLEYPYTFGGGTKLEIKRXX
modifications: not fully specified; (154)..(154) Xaa can be any naturally occurring amino acid; (1)..(1) Xaa can be any naturally occurring amino acid
In the case of B1, the “effect on HBEGF stimulation of cell growth” value in test [1] (300 nM antibody) is listed as “prevents any stimulation of cell growth by HBEGF”. In test [1] (different antibody concentrations pre-incubated with HBEGF 1 hr, MTT 48 hrs), the “inhibition of ligand induced growth” value was “inhibit the ligand induced growth in a dose dependent manner”.

B2: Recombinant HBEGF: recombinant HBEGF ligand used to stimulate cell growth and EGFR phosphorylation (protein)
chain: DLQEADLDLLRVTLSSKPQALATPNKEEHGKRKKKGKGLGKKRDPCLRKYKDFCIHGECKYVKELRAPSCICHPGYHGERCHGLSL
With B2, in test [1] (recombinant HBEGF ligand, MTT 48 hrs), the stimulation of growth result was “approximately 60%”.

B3: 8d7 1f6 2f7: cross-specific AREG/HBEGF murine monoclonal antibody; VH Sequence ID No: 7, VL Sequence ID No: 8 (antibody, listed as Mus musculus)
VH: MKCSWIIFFLMAVVTGVNSEVQLQQSGAELVRPGALVKLSCKASGFNIKDSYIHWVNQRPEQGLEWIGWIDPENGNTIYDPKFQGKASITADTSSNTAYLQLSSLTSEDTAVYYCVSASYRYGFSYWGQGTLVTVSAAKTTPPPVYPLAPGSL
VL: MRAPAQFLGLLVLWIPGAIGDIVMTQAAPSVPVTPGESVSISCRSNKSLLHTNGNTYLYWFLQRPGQSPQLLIYRMSNLASGVPDRFSGSGSGTAFTLRISRVEAEDVGVYYCMQHLEYPYTFGGGTKLEIKRADAAPTVSIFPPSSKLG
As for B3, the “inhibition of HBEGF stimulated phosphorylation of EGFR” value in test [2], in test [4] and in test [5] was “inhibition of ligand stimulation phosphorylation of EGFR” in each case. The RI value in test [3] was 1.1.

B4: 8d7 1f6 2b3: cross-specific AREG/HBEGF murine monoclonal antibody; VH Sequence ID No: 9, VL Sequence ID No: 10 (antibody, listed as Mus musculus)
VH: B3 VH with I6V, I7M
VL: B3 VL with A3P, A5L, Q6S
B4: the RI value in test [3] was found to be 0.99.
